Reference: paper PMC10739154, “Reinvestigation of Disulfide-bonded Oligomeric Forms of the Unfolded Protein Response Transducer ATF6” (Cell Structure and Function, 2019)

Assays:
[1] = target: C467A mutant of ATF6α(Δ244)-TAP (human); assay: non-reducing SDS-PAGE with immunoblotting; ATF6α-TAP constructs of various lengths at the N-terminus in HCT116 DKO cells; lysates on non-reducing SDS-PAGE; blot with anti-Myc; shows disulfide-bonded forms
[2] = target: C467A mutant of ATF6α(Δ331)-TAP (human); assay: as above
[3] = target: C618A mutant of ATF6α(Δ244)-TAP (human); assay: as above
[4] = target: the molecule itself; assay: non-reducing SDS-PAGE with immunoblotting; one form of ATF6α in the cells; lysis in 1% NP-40 buffer (50 mM Tris/HCl pH 7.5, 150 mM NaCl, 10 mM N-ethylmaleimide), boiled in SDS sample buffer without dithiothreitol; blot with anti-ATF6α; shows disulfide-bonded forms
[5] = target: the molecule itself; assay: non-reducing SDS-PAGE with immunoblotting; ATF6α-TAP constructs of various lengths at the N-terminus in HCT116 DKO cells; lysates on non-reducing SDS-PAGE; blot with anti-Myc; shows disulfide-bonded forms

Molecule | stoichiometry N [4] | also measured
C467A mutant of ATF6α(Δ244)-TAP (domain or fragment) |  | stoichiometry N [1]: 2
C467A mutant of ATF6α(Δ331)-TAP (domain or fragment) |  | stoichiometry N [2]: 2
C618A mutant of ATF6α(Δ244)-TAP (domain or fragment) |  | stoichiometry N [3]: 2
ATF6α (endogenous, HCT116 cells) (natural protein, human (endogenous in HCT116), UniProt P18850 1-670, looked up, ATF6α, endogenous in human colorectal carcinoma-derived HCT116 cells; also called pATF6α(P); source: endogenous, HCT116 WT cell lysate) MGEPAGVAGTMESPFSPGLFHRLDEDWDSALFAELGYFTDTDELQLEAANETYENNFDNLDFDLDLMPWESDIWDINNQICTVKDIKAEPQPLSPASSSYSVSSPRSVDSYSSTQHVPEELDLSSSSQMSPLSLYGENSNSLSSAEPLKEDKPVTGPRNKTENGLTPKKKIQVNSKPSIQPKPLLLPAAPKTQTNSSVPAKTIIIQTVPTLMPLAKQQPIISLQPAPTKGQTVLLSQPTVVQLQAPGVLPSAQPVLAVAGGVTQLPNHVVNVVPAPSANSPVNGKLSVTKPVLQSTMRNVGSDIAVLRRQQRMIKNRESACQSRKKKKEYMLGLEARLKAALSENEQLKKENGTLKRQLDEVVSENQRLKVPSPKRRVVCVMIVLAFIILNYGPMSMLEQDSRRMNPSVSPANQRRHLLGFSAKEAQDTSDGIIQKNSYRYDHSVSNDKALMVLTEEPLLYIPPPPCQPLINTTESLRLNHELRGWVHRHEVERTKSRRMTNNQQKTRILQGALEQGSNSQLMAVQYTETTSSISRNSGSELQVYYASPRSYQDFFEAIRRRGDTFYVVSFRRDHLLLPATTHNKTTRPKMSIVLPAININENVINGQDYEVMMQIDCQVMDTRILHIKSSSVPPYLRDQQRNQTNTFFGSPPAATEATHVVSTIPESLQ | 2 | 
C618A mutant of ATF6α-TAP (natural protein, human, UniProt P18850 1-670, looked up, ATF6α, human, full length, C618A; also called ATF6α(C618A)-TAP; source: HCT116 ATF6α/β-DKO cells, transfected, in lysate) MGEPAGVAGTMESPFSPGLFHRLDEDWDSALFAELGYFTDTDELQLEAANETYENNFDNLDFDLDLMPWESDIWDINNQICTVKDIKAEPQPLSPASSSYSVSSPRSVDSYSSTQHVPEELDLSSSSQMSPLSLYGENSNSLSSAEPLKEDKPVTGPRNKTENGLTPKKKIQVNSKPSIQPKPLLLPAAPKTQTNSSVPAKTIIIQTVPTLMPLAKQQPIISLQPAPTKGQTVLLSQPTVVQLQAPGVLPSAQPVLAVAGGVTQLPNHVVNVVPAPSANSPVNGKLSVTKPVLQSTMRNVGSDIAVLRRQQRMIKNRESACQSRKKKKEYMLGLEARLKAALSENEQLKKENGTLKRQLDEVVSENQRLKVPSPKRRVVCVMIVLAFIILNYGPMSMLEQDSRRMNPSVSPANQRRHLLGFSAKEAQDTSDGIIQKNSYRYDHSVSNDKALMVLTEEPLLYIPPPPCQPLINTTESLRLNHELRGWVHRHEVERTKSRRMTNNQQKTRILQGALEQGSNSQLMAVQYTETTSSISRNSGSELQVYYASPRSYQDFFEAIRRRGDTFYVVSFRRDHLLLPATTHNKTTRPKMSIVLPAININENVINGQDYEVMMQIDAQVMDTRILHIKSSSVPPYLRDQQRNQTNTFFGSPPAATEATHVVSTIPESLQ |  | stoichiometry N [5]: 2
HA-ATF6α(WT) (natural protein, human, UniProt P18850 1-670, looked up, ATF6α, human, full length; Plasmid from R. Prywes (Wang et al., 2000); also called HA-tagged WT; HA-tagged ATF6α WT; source: HCT116 ATF6α/β-DKO cells, transfected, in lysate; not shown: HA, N-terminal, kept) MGEPAGVAGTMESPFSPGLFHRLDEDWDSALFAELGYFTDTDELQLEAANETYENNFDNLDFDLDLMPWESDIWDINNQICTVKDIKAEPQPLSPASSSYSVSSPRSVDSYSSTQHVPEELDLSSSSQMSPLSLYGENSNSLSSAEPLKEDKPVTGPRNKTENGLTPKKKIQVNSKPSIQPKPLLLPAAPKTQTNSSVPAKTIIIQTVPTLMPLAKQQPIISLQPAPTKGQTVLLSQPTVVQLQAPGVLPSAQPVLAVAGGVTQLPNHVVNVVPAPSANSPVNGKLSVTKPVLQSTMRNVGSDIAVLRRQQRMIKNRESACQSRKKKKEYMLGLEARLKAALSENEQLKKENGTLKRQLDEVVSENQRLKVPSPKRRVVCVMIVLAFIILNYGPMSMLEQDSRRMNPSVSPANQRRHLLGFSAKEAQDTSDGIIQKNSYRYDHSVSNDKALMVLTEEPLLYIPPPPCQPLINTTESLRLNHELRGWVHRHEVERTKSRRMTNNQQKTRILQGALEQGSNSQLMAVQYTETTSSISRNSGSELQVYYASPRSYQDFFEAIRRRGDTFYVVSFRRDHLLLPATTHNKTTRPKMSIVLPAININENVINGQDYEVMMQIDCQVMDTRILHIKSSSVPPYLRDQQRNQTNTFFGSPPAATEATHVVSTIPESLQ | 2 | 
C467A mutant of ATF6α-TAP (natural protein, human, UniProt P18850 1-670, looked up, ATF6α, human, full length, C467A; also called ATF6α(C467A)-TAP; source: HCT116 ATF6α/β-DKO cells, transfected, in lysate) MGEPAGVAGTMESPFSPGLFHRLDEDWDSALFAELGYFTDTDELQLEAANETYENNFDNLDFDLDLMPWESDIWDINNQICTVKDIKAEPQPLSPASSSYSVSSPRSVDSYSSTQHVPEELDLSSSSQMSPLSLYGENSNSLSSAEPLKEDKPVTGPRNKTENGLTPKKKIQVNSKPSIQPKPLLLPAAPKTQTNSSVPAKTIIIQTVPTLMPLAKQQPIISLQPAPTKGQTVLLSQPTVVQLQAPGVLPSAQPVLAVAGGVTQLPNHVVNVVPAPSANSPVNGKLSVTKPVLQSTMRNVGSDIAVLRRQQRMIKNRESACQSRKKKKEYMLGLEARLKAALSENEQLKKENGTLKRQLDEVVSENQRLKVPSPKRRVVCVMIVLAFIILNYGPMSMLEQDSRRMNPSVSPANQRRHLLGFSAKEAQDTSDGIIQKNSYRYDHSVSNDKALMVLTEEPLLYIPPPPAQPLINTTESLRLNHELRGWVHRHEVERTKSRRMTNNQQKTRILQGALEQGSNSQLMAVQYTETTSSISRNSGSELQVYYASPRSYQDFFEAIRRRGDTFYVVSFRRDHLLLPATTHNKTTRPKMSIVLPAININENVINGQDYEVMMQIDCQVMDTRILHIKSSSVPPYLRDQQRNQTNTFFGSPPAATEATHVVSTIPESLQ |  | stoichiometry N [5]: 2
EGFP-ATF6α(WT) (natural protein, human, UniProt P18850 1-670, looked up, ATF6α, human, tagged with EGFP at the N-terminus; Constructed in previous studies (Nadanaka et al., 2007; 2004); source: HCT116 ATF6α/β-DKO cells, transfected, in lysate; not shown: EGFP, N-terminal, kept) MGEPAGVAGTMESPFSPGLFHRLDEDWDSALFAELGYFTDTDELQLEAANETYENNFDNLDFDLDLMPWESDIWDINNQICTVKDIKAEPQPLSPASSSYSVSSPRSVDSYSSTQHVPEELDLSSSSQMSPLSLYGENSNSLSSAEPLKEDKPVTGPRNKTENGLTPKKKIQVNSKPSIQPKPLLLPAAPKTQTNSSVPAKTIIIQTVPTLMPLAKQQPIISLQPAPTKGQTVLLSQPTVVQLQAPGVLPSAQPVLAVAGGVTQLPNHVVNVVPAPSANSPVNGKLSVTKPVLQSTMRNVGSDIAVLRRQQRMIKNRESACQSRKKKKEYMLGLEARLKAALSENEQLKKENGTLKRQLDEVVSENQRLKVPSPKRRVVCVMIVLAFIILNYGPMSMLEQDSRRMNPSVSPANQRRHLLGFSAKEAQDTSDGIIQKNSYRYDHSVSNDKALMVLTEEPLLYIPPPPCQPLINTTESLRLNHELRGWVHRHEVERTKSRRMTNNQQKTRILQGALEQGSNSQLMAVQYTETTSSISRNSGSELQVYYASPRSYQDFFEAIRRRGDTFYVVSFRRDHLLLPATTHNKTTRPKMSIVLPAININENVINGQDYEVMMQIDCQVMDTRILHIKSSSVPPYLRDQQRNQTNTFFGSPPAATEATHVVSTIPESLQ | 2 | 
HA-ATF6α(C467A) (natural protein, human, UniProt P18850 1-670, looked up, ATF6α, human, full length, C467A; Constructed in previous studies (Nadanaka et al., 2007; 2004); also called HA-tagged C467A mutant; source: HCT116 ATF6α/β-DKO cells, transfected, in lysate; not shown: HA, N-terminal, kept) MGEPAGVAGTMESPFSPGLFHRLDEDWDSALFAELGYFTDTDELQLEAANETYENNFDNLDFDLDLMPWESDIWDINNQICTVKDIKAEPQPLSPASSSYSVSSPRSVDSYSSTQHVPEELDLSSSSQMSPLSLYGENSNSLSSAEPLKEDKPVTGPRNKTENGLTPKKKIQVNSKPSIQPKPLLLPAAPKTQTNSSVPAKTIIIQTVPTLMPLAKQQPIISLQPAPTKGQTVLLSQPTVVQLQAPGVLPSAQPVLAVAGGVTQLPNHVVNVVPAPSANSPVNGKLSVTKPVLQSTMRNVGSDIAVLRRQQRMIKNRESACQSRKKKKEYMLGLEARLKAALSENEQLKKENGTLKRQLDEVVSENQRLKVPSPKRRVVCVMIVLAFIILNYGPMSMLEQDSRRMNPSVSPANQRRHLLGFSAKEAQDTSDGIIQKNSYRYDHSVSNDKALMVLTEEPLLYIPPPPAQPLINTTESLRLNHELRGWVHRHEVERTKSRRMTNNQQKTRILQGALEQGSNSQLMAVQYTETTSSISRNSGSELQVYYASPRSYQDFFEAIRRRGDTFYVVSFRRDHLLLPATTHNKTTRPKMSIVLPAININENVINGQDYEVMMQIDCQVMDTRILHIKSSSVPPYLRDQQRNQTNTFFGSPPAATEATHVVSTIPESLQ | 2 | 
EGFP-ATF6α(C467A) (natural protein, human, UniProt P18850 1-670, looked up, ATF6α, human, C467A, tagged with EGFP at the N-terminus; Constructed in previous studies (Nadanaka et al., 2007; 2004); source: HCT116 ATF6α/β-DKO cells, transfected, in lysate; not shown: EGFP, N-terminal, kept) MGEPAGVAGTMESPFSPGLFHRLDEDWDSALFAELGYFTDTDELQLEAANETYENNFDNLDFDLDLMPWESDIWDINNQICTVKDIKAEPQPLSPASSSYSVSSPRSVDSYSSTQHVPEELDLSSSSQMSPLSLYGENSNSLSSAEPLKEDKPVTGPRNKTENGLTPKKKIQVNSKPSIQPKPLLLPAAPKTQTNSSVPAKTIIIQTVPTLMPLAKQQPIISLQPAPTKGQTVLLSQPTVVQLQAPGVLPSAQPVLAVAGGVTQLPNHVVNVVPAPSANSPVNGKLSVTKPVLQSTMRNVGSDIAVLRRQQRMIKNRESACQSRKKKKEYMLGLEARLKAALSENEQLKKENGTLKRQLDEVVSENQRLKVPSPKRRVVCVMIVLAFIILNYGPMSMLEQDSRRMNPSVSPANQRRHLLGFSAKEAQDTSDGIIQKNSYRYDHSVSNDKALMVLTEEPLLYIPPPPAQPLINTTESLRLNHELRGWVHRHEVERTKSRRMTNNQQKTRILQGALEQGSNSQLMAVQYTETTSSISRNSGSELQVYYASPRSYQDFFEAIRRRGDTFYVVSFRRDHLLLPATTHNKTTRPKMSIVLPAININENVINGQDYEVMMQIDCQVMDTRILHIKSSSVPPYLRDQQRNQTNTFFGSPPAATEATHVVSTIPESLQ | 2 | 
EGFP-ATF6α(C618A) (natural protein, human, UniProt P18850 1-670, looked up, ATF6α, human, C618A, tagged with EGFP at the N-terminus; Constructed in previous studies (Nadanaka et al., 2007; 2004); source: HCT116 ATF6α/β-DKO cells, transfected, in lysate; not shown: EGFP, N-terminal, kept) MGEPAGVAGTMESPFSPGLFHRLDEDWDSALFAELGYFTDTDELQLEAANETYENNFDNLDFDLDLMPWESDIWDINNQICTVKDIKAEPQPLSPASSSYSVSSPRSVDSYSSTQHVPEELDLSSSSQMSPLSLYGENSNSLSSAEPLKEDKPVTGPRNKTENGLTPKKKIQVNSKPSIQPKPLLLPAAPKTQTNSSVPAKTIIIQTVPTLMPLAKQQPIISLQPAPTKGQTVLLSQPTVVQLQAPGVLPSAQPVLAVAGGVTQLPNHVVNVVPAPSANSPVNGKLSVTKPVLQSTMRNVGSDIAVLRRQQRMIKNRESACQSRKKKKEYMLGLEARLKAALSENEQLKKENGTLKRQLDEVVSENQRLKVPSPKRRVVCVMIVLAFIILNYGPMSMLEQDSRRMNPSVSPANQRRHLLGFSAKEAQDTSDGIIQKNSYRYDHSVSNDKALMVLTEEPLLYIPPPPCQPLINTTESLRLNHELRGWVHRHEVERTKSRRMTNNQQKTRILQGALEQGSNSQLMAVQYTETTSSISRNSGSELQVYYASPRSYQDFFEAIRRRGDTFYVVSFRRDHLLLPATTHNKTTRPKMSIVLPAININENVINGQDYEVMMQIDAQVMDTRILHIKSSSVPPYLRDQQRNQTNTFFGSPPAATEATHVVSTIPESLQ | 2 | 
